Test results reported in US9233155B2, “Method of treating solid cancers using anti-c-Met antibody and sorafenib combination therapy” (Samsung Electronics Co., Ltd., priority 2013, dated 2016).

B1: L3-1Y: anti-c-Met antibody: heavy chain variable region of huAbF46-H4-A1, human IgG2 hinge and IgG2 constant region, kappa light chain (antibody)
heavy: EVQLVESGGGLVQPGGSLRLSCAASGFTFTDYYMSWVRQAPGKGLEWLGFIRNKANGYTTEYSASVKGRFTISRDNSKNTLYLQMNSLRAEDTAVYYCARDNWFAYWGQGTLVTVSSASTKGPSVFPLAPCSRSTSESTAALGCLVKDYFPEPVTVSWNSGALTSGVHTFPAVLQSSGLYSLSSVVTVPSSNFGTQTYTCNVDHKPSNTKVDKTVERKCCVECPPCPAPPVAGPSVFLFPPKPKDTLMISRTPEVTCVVVDVSHEDPEVQFNWYVDGVEVHNAKTKPREEQFNSTFRVVSVLTVVHQDWLNGKEYKCKVSNKGLPAPIEKTISKTKGQPREPQVYTLPPSREEMTKNQVSLTCLVKGFYPSDIAVEWESNGQPENNYKTTPPMLDSDGSFFLYSKLTVDKSRWQQGNVFSCSVMHEALHNHYTQKSLSLSPGK
light: DIQMTQSPSSLSASVGDRVTITCKSSQSLLASGNQNNYLAWYQQKPGKAPKMLIIWASTRVSGVPSRFSGSGSGTDFTLTISSLQPEDFATYYCQQSYSRPYTFGQGTKVEIKRTVAAPSVFIFPPSDEQLKSGTASVVCLLNNFYPREAKVQWKVDNALQSGNSQESVTEQDSKDSTYSLSSTLTLSKADYEKHKVYACEVTHQGLSSPVTKSFNRGEC

Columns and labels:
[1] = system: MKN45 gastric cancer cells; experiment: Tumor xenograft model of gastric cancer cell line MKN45; assay type: in vivo, BALB/c nude mice; conditions: sorafenib 3.3 mg/kg P.O. once a day, L3-1Y 1 mg/kg I.V. once a week, day 21
Protocol: (§1) To verify the in vivo effect of the co-administration on tumor growth, a tumor xenograft model using male 5-6 week-old BALB/c nude mice (Pharmalegacy, China) was prepared. The mice were adapted at least one week before inoculation of tumor cells.
(§2) Then, the mice were anesthetized with 1-2% isofurane, and MKN45 gastric cancer cells (JCRB, JCRB0254) were subcutaneously injected into the right flank of the mice in the amount of 5×10^6 cells per mouse. 7 days after, when the average size of the tumor reaches 50 mm^3 or more, the mice were grouped as follows: a group treated with sorafenib (3.3 mg/kg, P.O., once a day), a group treated with L3-1Y (1 mg/kg, I.V., once a week), a group co-treated with L3-1Y (1 mg/kg, I.V., once a week) and sorafenib (3.3 mg/kg, P.O., once a day), and a group (control) treated with vehicle (PBS 0.2 ml, I.V., once a week). Each group consisted of 10 mice.
(§3) The experiment was performed for 4 weeks in total, and tumor size and body weight of the mice were measured twice a week. The tumor volume (V) was calculated by the following formula: V (mm^3)={length of long axis (mm)×(length of short axis (mm))^2}/2.

[2] = system: HT29 colon cancer cells; experiment: Tumor xenograft model of colon cancer cell line HT29; assay type: in vivo, BALB/c nude mice; conditions: for Tumor Inhibition Rate at 21st day (%; compared to vehicle-treated group (0%)): sorafenib 3.3 mg/kg P.O. once a day, L3-1Y 1 mg/kg I.V. once a week, day 21
Protocol: as §1
as §2, with “and HT29 colon” for “and MKN45 gastric”, “cells I(ATCC, HTB-38)” for “cells (JCRB, JCRB0254)”, “mice at” for “mice in”, “week).” for “week). Each group consisted of 10 mice.”
as §3

[3] = system: EBC1 lung cancer cells; experiment: Cell growth inhibition in EBC1 lung cancer cell line (CellTiter Glo); assay type: cell-based; conditions: L3-1Y 0-2 μg/mL alone, sorafenib 4 μM alone, or both; 72 hours
Protocol: (§4) In particular, RPMI1640 medium (GIBCO) containing 10% FBS added to a 96 well plate. EBC1 lung cancer cells (JCRB, JCRB0820) were seeded thereon in the amount of 5,000 cells/well, and incubated overnight at 37° C. After 24 hours (the next day), the incubated cells were treated with (a) L3-1Y (Reference Example 1) alone or (b) L3-1Y and sorafenib. For the single treatment of L3-1Y alone, the concentration of L3-1Y was 0 μg/mL, 0.016 μg/mL, 0.08 μg/mL, 0.4 μg/mL, or 2 μg/mL. For the co-treatment of L3-1Y and sorafenib, the concentration of sorafenib was fixed at 4 μM, and the concentration of L3-1Y was 0 μg/mL, 0.016 μg/mL, 0.08 μg/mL, 0.4 μg/mL, or 2 μg/m L.
(§5) At 72 hours after the single treatment or the co-treatment, 100 μL of CellTiter Glo solution (Promega, G7572) was added to each well, and left for 30 minutes at room temperature. The cell number was counted by emission signal, and the emission signal was recorded using Envision 2104 Multi-label Reader (Perkin Elmer).

[4] = system: MKN45 gastric cancer cells; experiment: Cell growth inhibition in MKN45 gastric cancer cell line (CellTiter Glo); assay type: cell-based
Protocol: as §4, with “FBS was” for “FBS”, “MKN45 gastric” for “EBC1 lung”, “JCRB0254)” for “JCRB0820)”, “co-administration” for “co-treatment”, “μM, which is a concentration of IC30 in MKN45 cell line,” for “μM,”, “μg/mL.” for “μg/m L.”
as §5

[5] = system: HT29 colon cancer cells; experiment: Cell growth inhibition in HT29 colon cancer cell line (CellTiter Glo); assay type: cell-based; conditions: L3-1Y 0-2 μg/mL alone or with sorafenib fixed at 4 μM, 72 hours
Protocol: as §4, with “FBS was” for “FBS”, “HT29 colon” for “EBC1 lung”, “(ATCC, HTB-38)” for “(JCRB, JCRB0820)”, “μg/mL.” for “μg/m L.”
as §5

[6] = system: HCC1806 breast cancer cell line; experiment: Cell growth inhibition in HCC1806 breast cancer cell line (CellTiter Glo); assay type: cell-based; conditions: L3-1Y 0-2 μg/mL alone or with sorafenib fixed at 3 μM, 72 hours

Molecule	Tumor Inhibition Rate at 21st day (%; compared to vehicle-treated group (0%)) [1] [%]	Tumor Inhibition Rate at 21st day (%; compared to vehicle-treated group (0%)) [2] [%]	cell growth inhibiting effect [3]	inhibition at 4 µM ([4]; Homo sapiens, MKN-45, single treatment of sorafenib 4 μM (0 μg/mL of L3-1Y), 72 hours, read-out: cell growth inhibition rate) [%]	concentration of IC30 in MKN45 cell line ([4]; MKN45 cell line) [µM]	cell growth inhibiting effect [5]	tumor inhibiting effect ([2]; same doses as Table 4)	cell death / cell growth inhibiting effect [6]	cell growth inhibiting effect ([4]; L3-1Y 0-2 μg/mL alone or with sorafenib fixed at 4 μM, 72 hours)	cell growth inhibiting effect ([4]; L3-1Y 0.08 μg/mL, alone or with 4 μM sorafenib, 72 hours)
CNC(=O)c1cc(Oc2ccc(NC(=O)Nc3ccc(Cl)c(C(F)(F)F)c3)cc2)ccn1 [Sorafenib, 4-[4-[[4-chloro-3-(trifluoromethyl)phenyl]carbamoylamino]phenoxy]-N-methyl-pyridine-2-carboxamide]	24.7	22.1	no cell growth inhibiting effect	30	4					
B1	36.2	−0.9	observed			not observed	no tumor inhibiting effect	not observed	observed	only a little effect
